Measurements published in patent publication US6432702 (NEW YORK UNIVERSITY, dated 2002).

Tests used:
[1] = target: T1, FGF receptor-2 (bek) (UniProt P21803 22-821, limits assumed); assay: competition with 125I-bFGF on CHO 3-7.5 cells expressing FGF receptor-2
T1 construct: whole, on cells; also called CHO 3-7.5 cells

[2] = target: T2, FGF receptor-1 (flg) (UniProt P16092 22-822, limits assumed); assay: Scatchard analysis, 125I-labeled ligand on CHO 4-1 cells expressing FGF receptor-1, 4 C
T2 construct: whole, on cells; also called flg receptor; CHO 4-1 cells
T2 sequence (P16092 22-822 limits assumed): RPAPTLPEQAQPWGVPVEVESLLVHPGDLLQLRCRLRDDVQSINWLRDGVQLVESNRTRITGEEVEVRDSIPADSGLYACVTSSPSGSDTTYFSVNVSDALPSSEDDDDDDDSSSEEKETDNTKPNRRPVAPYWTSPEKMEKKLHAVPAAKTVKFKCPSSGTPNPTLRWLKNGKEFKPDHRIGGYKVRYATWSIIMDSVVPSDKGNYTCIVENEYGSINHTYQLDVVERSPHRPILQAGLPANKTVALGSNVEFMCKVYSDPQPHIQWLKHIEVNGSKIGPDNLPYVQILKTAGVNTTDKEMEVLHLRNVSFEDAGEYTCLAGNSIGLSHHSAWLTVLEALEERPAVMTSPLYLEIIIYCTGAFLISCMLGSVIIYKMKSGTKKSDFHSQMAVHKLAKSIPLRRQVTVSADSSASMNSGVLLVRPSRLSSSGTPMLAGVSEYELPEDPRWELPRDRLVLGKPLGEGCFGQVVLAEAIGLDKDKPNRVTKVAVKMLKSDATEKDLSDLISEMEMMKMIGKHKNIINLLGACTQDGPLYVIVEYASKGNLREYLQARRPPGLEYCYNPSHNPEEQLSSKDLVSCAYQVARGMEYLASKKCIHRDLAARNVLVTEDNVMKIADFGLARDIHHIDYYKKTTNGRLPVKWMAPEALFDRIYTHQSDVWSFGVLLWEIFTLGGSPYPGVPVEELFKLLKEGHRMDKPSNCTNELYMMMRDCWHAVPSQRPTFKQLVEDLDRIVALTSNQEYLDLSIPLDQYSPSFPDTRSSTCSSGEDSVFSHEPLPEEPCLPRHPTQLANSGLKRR
Method: Scatchard analysis of the binding of K-FGF and K-FGF-140 was performed on CHO 4-1 cells expressing the FGF receptor-1 as follows. Cells at 4.8×10^5/35mm dish were incubated at 4° C. with DMEM containing 0.15% gelatin, […].
In FIG. 7, Scatchard analysis of binding to high affinity receptors gave a straight line, indicating a single class of binding sites.

[3] = target: T2, FGF receptor-1 (flg); assay: competition with 125I-bFGF on CHO 4-1 cells expressing FGF receptor-1

T1 sequence (P21803 22-821 limits assumed): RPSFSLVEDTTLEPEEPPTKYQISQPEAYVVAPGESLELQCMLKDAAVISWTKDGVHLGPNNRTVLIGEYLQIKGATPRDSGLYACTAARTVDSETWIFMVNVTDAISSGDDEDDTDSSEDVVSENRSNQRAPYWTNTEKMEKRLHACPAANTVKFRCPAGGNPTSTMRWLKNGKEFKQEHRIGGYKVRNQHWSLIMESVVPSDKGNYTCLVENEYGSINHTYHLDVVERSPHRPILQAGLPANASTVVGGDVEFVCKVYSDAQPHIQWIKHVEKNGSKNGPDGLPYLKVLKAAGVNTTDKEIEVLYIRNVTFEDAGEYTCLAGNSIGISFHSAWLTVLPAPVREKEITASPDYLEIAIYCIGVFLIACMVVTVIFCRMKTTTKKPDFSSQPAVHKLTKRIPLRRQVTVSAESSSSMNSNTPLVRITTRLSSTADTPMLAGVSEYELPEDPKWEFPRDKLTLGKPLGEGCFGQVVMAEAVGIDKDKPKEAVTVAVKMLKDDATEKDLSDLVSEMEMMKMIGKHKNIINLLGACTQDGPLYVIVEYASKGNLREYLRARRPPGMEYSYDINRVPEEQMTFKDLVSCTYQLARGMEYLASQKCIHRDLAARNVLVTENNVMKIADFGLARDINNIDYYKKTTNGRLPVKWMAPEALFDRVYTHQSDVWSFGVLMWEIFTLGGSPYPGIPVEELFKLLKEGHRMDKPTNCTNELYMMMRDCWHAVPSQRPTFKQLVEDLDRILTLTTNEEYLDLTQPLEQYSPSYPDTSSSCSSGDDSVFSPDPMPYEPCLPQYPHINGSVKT

| fold higher affinity than bFGF or full-length K-FGF [1] [fold] | Kd [2] [pM] | fold higher affinity than full-length K-FGF [2] [fold] | fold more competitor needed than bFGF or K-FGF-140 [3] [fold] | Binder |
| --- | --- | --- | --- | --- |
| ~3 | ~95 | ~3 |  | K-FGF-140 (truncated K-FGF) (ligand, Unglycosylated, 140 residues, about 14,000 Daltons; also called truncated mammalian growth factor; truncated protein) AAVQSGAGDYLLGIKRLRRLYCNVGIGFHLQALPDGRIGGAHADTRDSLLELSPVERGVVSIFGVASRFFVAMSSKGKLYGSPFFTDECTFKEILLPNNYNAYESYKYPGMFIALSKNGKTKKGNRVSPTMKVTHFLPRL |
|  | ~285 |  | ~8 | K-FGF (full-length mature human growth factor) (ligand, also called full-length K-FGF; FGF-4) APTAPNGTLEAELERRWESLVALSLARLPVAAQPKEAAVQSGAGDYLLGIKRLRRLYCNVGIGFHLQALPDGRIGGAHADTRDSLLELSPVERGVVSIFGVASRFFVAMSSKGKLYGSPFFTDECTFKEILLPNNYNAYESYKYPGMFIALSKNGKTKKGNRVSPTMKVTHFLPRL |
